Reference: CN111196850A (BEIJING HUIZHI HEYUAN BIOTECHNOLOGY CO LTD, dated 2020)

Legend:
[1] = target: rhTSLP-hFc (human); assay: cell-based or functional assay
[2] = target: rhTSLP-hFc (human); assay: competition ELISA: rhTSLP-hFc coated, antibody titrated against 2 μg/ml rhTSLPR-His, anti-His-HRP detection

B1: 嵌合抗体6K-3H (antibody, human IgG1, kappa)
heavy: not shown
light: DILLTQSPSSLSASLGGKVIITCKASQDINKYIAWYQHKPGKGLRLLIHYTSTLEPGIPSRFSGSGSGRDYSFSISNLEPEDIATYYCLHYDNLLTFGDGTKLELKRTVAAPSVFIFPPSDEQLKSGTASVVCLLNNFYPREAKVQWKVDNALQSGNSQESVTEQDSKDSTYSLSSTLTLSKADYEKHKLYACEVTHQGLSSPVTKSFNRGEC
- IC50, 抑制TSLP刺激的293F转染细胞STAT5-荧光素酶活性 [1]: 0.26 µg/mL
- IC50 [2]: 0.609 µg/mL
